Test [1] addresses T1, recombinant human CD16a F158 allele (human, UniProt P08637 17-208, site-specific biotinylation (site not stated)).
T1 construct: also called FcγRIIIA F158
Briefly: SPR (Biacore 8K), receptor captured on the chip via site-specific biotinylation; qualitative assessment. (SPR reads the build-up and loss of mass on a sensor chip optically.)

The target of test [2] is T2, recombinant human CD64 (human, UniProt P12314 16-288, limits assumed, site-specific biotinylation (site not stated)).
T2 construct: also called FcγRI
The test is described as above.

Test [3] deals with T3, recombinant human CD16a V158 allele (human, UniProt P08637 17-208, site-specific biotinylation (site not stated)).
T3 construct: also called FcγRIIIA V158
Described as above.

The target of test [4] is recombinant cynomolgus CD16 (cynomolgus, UniProt Q8SPW2 17-208, site-specific biotinylation (site not stated)). The description is as above.
In test [5] the target is T4, recombinant human CD32b (human, UniProt P31994 46-217, limits assumed, site-specific biotinylation (site not stated)).
T4 construct: also called FcγRIIB
T4 sequence (looked up): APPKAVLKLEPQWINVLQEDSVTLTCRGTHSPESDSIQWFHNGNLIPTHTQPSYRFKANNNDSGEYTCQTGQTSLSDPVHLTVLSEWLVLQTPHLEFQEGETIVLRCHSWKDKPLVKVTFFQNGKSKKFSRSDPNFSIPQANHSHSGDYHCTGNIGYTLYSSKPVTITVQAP
The description is as above.

Test [6] addresses T5, recombinant human CD32a R131 allele (human, UniProt P12318 36-218, limits assumed, site-specific biotinylation (site not stated)).
T5 construct: also called FcγRIIA R131
T5 sequence (looked up): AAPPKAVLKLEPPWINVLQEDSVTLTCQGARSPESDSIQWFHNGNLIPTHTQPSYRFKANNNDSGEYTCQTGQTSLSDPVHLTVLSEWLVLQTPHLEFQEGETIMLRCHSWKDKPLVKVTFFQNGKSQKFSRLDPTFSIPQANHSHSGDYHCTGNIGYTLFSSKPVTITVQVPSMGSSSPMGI
The test is described as above.

In test [7] the target is T6, recombinant human CD32a H131 allele (human, UniProt P12318 36-218, limits assumed, site-specific biotinylation (site not stated)).
T6 construct: also called FcγRIIA H131
T6 sequence (looked up): T5 sequence (looked up) with R132H
The test is described as above.

Test [8] concerns the target T7, recombinant human CD16b (human, UniProt O75015 17-200, site-specific biotinylation (site not stated)).
T7 construct: also called FcγRIIIB
The test is described as above.

The target in test [9] is cynomolgus monkey FcRn (cynomolgus monkey, UniProt Q8SPV9 24-297; Q8SPW0 21-119). Description: FcRn binding at pH 6.0, reference IgG1 isotype control trastuzumab (method not stated in the paragraph).
The target in test [10] is human FcRn (human, UniProt P55899 24-297; P61769 21-119). Described as above.

Residue numbers refer to the chain shown, from its start.

T3 sequence (P08637 17-208 F176V limits assumed): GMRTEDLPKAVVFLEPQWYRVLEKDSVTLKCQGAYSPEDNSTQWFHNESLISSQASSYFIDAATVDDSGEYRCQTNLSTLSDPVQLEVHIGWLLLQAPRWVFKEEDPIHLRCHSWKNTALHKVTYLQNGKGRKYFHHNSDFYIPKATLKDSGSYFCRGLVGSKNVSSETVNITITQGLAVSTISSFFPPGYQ
Sequence of human FcRn (P55899 24-297 limits assumed, form in doubt, chain 1 of 2): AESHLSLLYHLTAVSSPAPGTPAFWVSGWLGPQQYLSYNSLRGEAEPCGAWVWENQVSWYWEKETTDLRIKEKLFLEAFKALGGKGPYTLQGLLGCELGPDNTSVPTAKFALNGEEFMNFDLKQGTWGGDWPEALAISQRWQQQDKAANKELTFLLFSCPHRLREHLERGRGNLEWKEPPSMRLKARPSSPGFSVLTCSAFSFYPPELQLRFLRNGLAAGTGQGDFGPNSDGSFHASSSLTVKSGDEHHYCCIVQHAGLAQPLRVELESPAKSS
Sequence of human FcRn (P61769 21-119 limits assumed, form in doubt, chain 2 of 2): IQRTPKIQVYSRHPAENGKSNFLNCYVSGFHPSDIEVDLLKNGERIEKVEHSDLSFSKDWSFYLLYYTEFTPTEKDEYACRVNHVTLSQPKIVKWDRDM
T7 sequence (O75015 17-200 limits assumed): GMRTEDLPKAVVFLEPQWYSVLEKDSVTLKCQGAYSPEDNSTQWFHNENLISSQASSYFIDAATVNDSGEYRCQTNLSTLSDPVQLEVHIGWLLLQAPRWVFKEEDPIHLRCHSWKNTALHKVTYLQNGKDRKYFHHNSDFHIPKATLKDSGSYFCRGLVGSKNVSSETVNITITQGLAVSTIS
T2 sequence (P12314 16-288 limits assumed): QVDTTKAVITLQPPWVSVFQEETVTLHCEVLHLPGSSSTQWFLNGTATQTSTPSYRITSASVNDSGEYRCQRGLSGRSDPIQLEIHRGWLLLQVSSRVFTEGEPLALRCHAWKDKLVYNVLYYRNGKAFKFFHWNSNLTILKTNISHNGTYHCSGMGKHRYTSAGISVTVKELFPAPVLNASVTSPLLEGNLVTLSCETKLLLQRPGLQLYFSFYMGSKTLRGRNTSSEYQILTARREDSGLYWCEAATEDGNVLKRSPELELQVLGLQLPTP
Sequence of recombinant cynomolgus CD16 (Q8SPW2 17-208 limits assumed): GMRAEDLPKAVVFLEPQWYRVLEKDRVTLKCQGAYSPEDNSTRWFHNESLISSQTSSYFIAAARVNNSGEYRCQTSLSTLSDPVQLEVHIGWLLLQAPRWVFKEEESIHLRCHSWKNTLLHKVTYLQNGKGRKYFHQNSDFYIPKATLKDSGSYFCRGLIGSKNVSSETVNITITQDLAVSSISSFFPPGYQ
T1 sequence (P08637 17-208 limits assumed): as the sequence (P08637 17-208 F176V limits assumed) above, with V160F counted along it
Sequence of cynomolgus monkey FcRn (Q8SPV9 24-297 limits assumed, chain 1 of 2): as the sequence (P55899 24-297 limits assumed, form in doubt, chain 1 of 2) above, with N39D, E44Q, G99S, S189G, S190N, L217M, S269T counted along it
Sequence of cynomolgus monkey FcRn (Q8SPW0 21-119 limits assumed, chain 2 of 2): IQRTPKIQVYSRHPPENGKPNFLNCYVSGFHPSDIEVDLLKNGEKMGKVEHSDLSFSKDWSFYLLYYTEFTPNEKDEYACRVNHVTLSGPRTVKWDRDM

B1: DF-hIL-12-Fc si (Fc fusion)
chain 1: IWELKKDVYVVELDWYPDAPGEMVVLTCDTPEEDGITWTLDQSSEVLGSGKTLTIQVKEFGDAGQYTCHKGGEVLSHSLLLLHKKEDGIWSTDILKDQKEPKNKTFLRCEAKNYSGRFTCWWLTTISTDLTFSVKSSRGSSDPQGVTCGAATLSAERVRGDNKEYEYSVECQEDSACPAAEESLPIEVMVDAVHKLKYENYTSSFFIRDIIKPDPPKNLQLKPLKNSRQVEVSWEYPDTWSTPHSYFSLTFCVQVQGKSKREKKDRVFTDKTSATVICRKNASISVRAQDRYYSSSWSEWASVPCSPKSSDKTHTCPPCPAPEAAGGPSVFLFPPKPKDTLMISRTPEVTCVVVDVSHEDPEVKFNWYVDGVEVHNAKTKPREEQYNSTYRVVSVLTVLHQDWLNGKEYKCKVSNKALAAPIEKTISKAKGQPREPQVCTLPPSRDELTENQVSLTCLVKGFYPSDIAVEWESNGQPENNYKTTPPVLDSDGSFFLYSWLTVDKSRWQQGNVFSCSVMHEALHNHYTQKSLSLSPG
chain 2: RNLPVATPDPGMFPCLHHSQNLLRAVSNMLQKARQTLEFYPCTSEEIDHEDITKDKTSTVEACLPLELTKNESCLNSRETSFITNGSCLASRKTSFMMALCLSSIYEDLKMYQVEFKTMNAKLLMDPKRQIFLDQNMLAVIDELMQALNFNSETVPQKSSLEEPDFYKTKIKLCILLHAFRIRAVTIDRVMSYLNASGGGGSGGGGSGGGGSEPKSSDKTHTCPPCPAPEAAGGPSVFLFPPKPKDTLMISRTPEVTCVVVDVSHEDPEVKFNWYVDGVEVHNAKTKPREEQYNSTYRVVSVLTVLHQDWLNGKEYKCKVSNKALAAPIEKTISKAKGQPREPRVYTLPPCRDELTKNQVSLTCLVKGFYPSDIAVEWESNGQPENNYKTTPPVLVSDGSFTLYSKLTVDKSRWQQGNVFSCSVMHEALHNHYTQKSLSLSPG
notes: also called DF IL-12-Fc; hIL-12-Fc-LALAPA
With B1, the binding result in test [1], in test [2], in test [3], in test [4], in [5] and in [6] was “no binding” in each case. Further, the binding result in test [7] and in test [8] was “no binding” in each case. Besides, the “fold difference in binding affinity value against trastuzumab” value in [9] and in test [10] was below 1.5 fold in each case.

For the origin of these results see patent US20230272041A1 (DRAGONFLY THERAPEUTICS, published 2023).
